Assay results: the supplement of paper PMC9170038

System: MS2 coat protein
Assay: apparent KD of MS2 coat protein; designed switch direction (-1 OFF switch, 1 ON switch): -1; higher = weaker reporter binding
Outline: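 The apparent KD reported per design is the median over clusters of curve fits to normalised cluster fluorescence. The RNA switches were transcribed on Illumina chips by stalled E. coli RNA polymerase. SNAP-549-labelled MS2 coat protein was titrated from 0.7 or 1.5 nM, doubling up to 3 µM, in Tris-HCl pH 7.5 buffer containing KCl, MgCl2, BSA, DTT, tRNA and Tween-20, with no input, 200 uM small-molecule ligand, or an oligonucleotide input.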

[1] = Eterna round: R95, input ligand: microRNA oligo, concentration not stated
[2] = input ligand: microRNA oligo, concentration not stated
[3] = Eterna round: R95, input ligand: FMN 200 uM
[4] = Eterna round: R95, input ligand: none

Sequence | apparent KD of MS2 coat protein [1] | apparent KD of MS2 coat protein (input ligand: FMN 200 uM) | apparent KD of MS2 coat protein [2] | apparent KD of MS2 coat protein (input ligand: none) | apparent KD of MS2 coat protein [3] | apparent KD of MS2 coat protein [4]
CAGUACUGAGGAUAUACAUGAGGAUCACCCAUGUGUUCCAGCUAGGAAACGAGCAAAAGUAGAAGGCAGUACUG [salish99_ex3_r3_071] (puzzle: Exclusion 3) | 0.0197 µM | – | – | – | – | –
CAGUACUGAGGAUAUACAUGAGGAUCACCCAUGUGUUCCAGCUGGGAAACUAGCAAAAGUAGAAGGCAGUACUG [salish99_ex3_r3_076] (Eterna round: R96, puzzle: Exclusion 3) | – | 0.287 µM | 0.0214 µM | 0.0218 µM | – | –
CAGUACUGAGGAUAUACAUGAGGAUCACCCAUGUGUUCCAGCUGGGAAACUAGCAAAAGUAGAAGGCAGUACUG [salish99_ex3_r3_076] (puzzle: Exclusion 3) | 0.0273 µM | – | – | – | 0.422 µM | 0.0208 µM
CAGUUCCAGGGAGGAUAUCCGAAAGGAAGUGUAGGAGAAGGCCCAAACUGAAAACACAUGAGGAUCACCCAUGUAGGUGUUCUC [PowerStrip EXNG 1.20] (Eterna round: R96, puzzle: Exclusion NG 1) | – | 1.32 µM | 0.656 µM | 0.659 µM | – | –
CAUACACAUGAGGAUCACCCAUGUGAGGAUAUGCGUACGUAAUCCGUAGGAGACGUGCGCAGAAGGCGCGAGGU [Mat - Mod of JL D94] (puzzle: Exclusion 1) | 0.0387 µM | – | – | – | – | –
CAUACUCAAGUGAGGAUAUAGUCUCGGAUACGGAACUAGAAGGCACAUGAGGAUCACCCAUGUAGAGAGUAAAG [EX-4 Malc #28] (puzzle: Brourd's mod of Exclusion 4) | 0.0228 µM | – | – | – | 0.0566 µM | 0.0159 µM
CAUACUGAAGUUAGGAUAUUCGGACGAAUACGGAUGGAGAAGGGACAUGAGGAUCACCCAUGUAGAUAGUAAAG [EX-4 Malc #13] (puzzle: Brourd's mod of Exclusion 4) | 0.0207 µM | – | – | – | 0.0201 µM | 0.0198 µM
CAUGAUCUUCGGAUCAUGUACAUGAGGAUCACCCAUGUGACGAGUAUAUCCUCAAACAAGCUUUUUGCUCGUCUUAU [Sensor v3 - Turn-off variant 1 - 22] (puzzle: Sensor v3, turn-off variant 1) | 0.417 µM | – | – | – | 0.299 µM | 0.327 µM
CAUGGAUGUGAGCCGCAUUACAUGAGGAUCACCCAUGUCAACAAGCUUUUUGCUUGUCUUACGCGGCGGCAUCAAAA [Geonso] (puzzle: Sensor v3, turn-off variant 1) | 0.00986 µM | – | – | – | 0.012 µM | 0.0103 µM
CAUGGAUGUGAGCCGCAUUACAUGAGGAUCACCCAUGUCAACAAGCUUUUUGCUUGUCUUACGCGGCGGCAUCUAAA [Abebies] (puzzle: Sensor v3, turn-off variant 1) | 0.00844 µM | – | – | – | 0.0113 µM | 0.0103 µM
CAUGUCCAACGAGGAUAUGGGACAGGAGGUGUACCAGAAGGCGUACGGACAUGAGGAUCACCCAUGUCGCGCGGUGCGAUGUGG [15th something] (Eterna round: R96, puzzle: Exclusion NG 1) | – | 0.0989 µM | 0.0398 µM | 0.0628 µM | – | –
CAUGUGUAAGGAUAUGACAAUGGUAUCGAAAGAUACCAUUGUCAGAAGGUACAUGAGGAUCACCCAUGUGGAUC [Ex4-3: 18] (puzzle: Exclusion 4) | 0.199 µM | – | – | – | – | –
CAUUAGCAAGCGAGAUCCCACAUGAGGAUCACCCAUGUGCUCGUCUUAUAAGGUACUGUGACGAUAGUCACGGUACC [Mat - Sensor, turn-off var - Eli Mod - D41] (Eterna round: R97, puzzle: Sensor, turn-off variant 1) | – | 0.0171 µM | – | 0.0143 µM | – | –
CAUUGUUAUCGAGGAUAUCGUAUUGAGAUUCUACGAGAAGGCGGACUAAACAUGAGGAUCACCCAUGUGGGACGGAUGCUUGGG [Ex NG1 #31] (Eterna round: R96, puzzle: Exclusion NG 1) | – | 0.0307 µM | 0.0258 µM | 0.0281 µM | – | –
